Patent US20180112002A1 (University of California, published 2018)

B1: ARHGEF6 protein (Rho guanine nucleotide exchange factor 6) (other)
chain: MNPEEQIVTWLISLGVLESPKKTICDPEEFLKSSLKNGVVLCKLINRLMPGSVEKFCLDPQTEADCINNINDFLKGCATLQVEIFDPDDLYSGVNFSKVLSTLLAVNKATEDQLSERPCGRSSSLSAANTSQTNPQGAVSSTVSGLQRQSKTVEMTENGSHQLIVKARFNFKQTNEDELSVCKGDIIYVTRVEEGGWWEGTLNGRTGWFPSNYVREIKSSERPLSPKAVKGFETAPLTKNYYTVVLQNILDTEKEYAKELQSLLVTYLRPLQSNNNLSTVEVTSLLGNFEEVCTFQQTLCQALEECSKFPENQHKVGGCLLSLMPHFKSMYLAYCANHPSAVNVLTQHSDELEQFMENQGASSPGILILTTNLSKPFMRLEKYVTLLQELERHMEDTHPDHQDILKAIVAFKTLMGQCQDLRKRKQLELQILSEPIQAWEGEDIKNLGNVIFMSQVMVQYGACEEKEERYLMLFSNVLIMLSASPRMSGFIYQGKIPIAGTVVTRLDEIEGNDCTFEITGNTVERIVVHCNNNQDFQEWLEQLNRLIRGPASCSSLSKTSSSSCSAHSSFSSTGQPRGPLEPPQIIKPWSLSCLRPAPPLRPSAALGYKERMSYILKESSKSPKTMKKFLHKRKTERKPSEEEYVIRKSTAALEEDAQILKVIEAYCTSANFQQGHGSSTRKDSIPQVLLPEEEKLIIEETRSNGQTIMEEKSLVDTVYALKDEVRELKQENKRMKQCLEEELKSRRDLEKLVRRLLKQTDECIRGESSSKTSILP
notes: Endogenous protein of CLL and MEC1 cells
B2: CD19 (receptor, human, UniProt P15391 20-556, looked up)
chain: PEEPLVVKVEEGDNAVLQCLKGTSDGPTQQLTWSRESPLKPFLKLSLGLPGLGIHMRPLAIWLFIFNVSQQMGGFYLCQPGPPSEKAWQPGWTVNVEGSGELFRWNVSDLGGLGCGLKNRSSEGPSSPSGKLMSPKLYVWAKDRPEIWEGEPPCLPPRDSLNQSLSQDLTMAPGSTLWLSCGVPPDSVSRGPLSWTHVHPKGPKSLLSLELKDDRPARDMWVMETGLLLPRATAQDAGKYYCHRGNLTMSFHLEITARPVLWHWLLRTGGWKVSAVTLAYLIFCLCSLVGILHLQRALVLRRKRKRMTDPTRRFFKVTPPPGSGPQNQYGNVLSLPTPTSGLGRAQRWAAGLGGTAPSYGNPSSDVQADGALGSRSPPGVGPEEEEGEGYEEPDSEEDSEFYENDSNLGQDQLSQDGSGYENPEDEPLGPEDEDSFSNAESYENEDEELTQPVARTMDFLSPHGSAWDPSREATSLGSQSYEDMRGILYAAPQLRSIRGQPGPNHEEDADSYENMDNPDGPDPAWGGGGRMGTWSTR
notes: whole, on cells; Negative control for co-localization
B3: CD5 (receptor, human, UniProt P06127 25-495, looked up)
chain: RLSWYDPDFQARLTRSNSKCQGQLEVYLKDGWHMVCSQSWGRSSKQWEDPSQASKVCQRLNCGVPLSLGPFLVTYTPQSSIICYGQLGSFSNCSHSRNDMCHSLGLTCLEPQKTTPPTTRPPPTTTPEPTAPPRLQLVAQSGGQHCAGVVEFYSGSLGGTISYEAQDKTQDLENFLCNNLQCGSFLKHLPETEAGRAQDPGEPREHQPLPIQWKIQNSSCTSLEHCFRKIKPQKSGRVLALLCSGFQPKVQSRLVGGSSICEGTVEVRQGAQWAALCDSSSARSSLRWEEVCREQQCGSVNSYRVLDAGDPTSRGLFCPHQKLSQCHELWERNSYCKKVFVTCQDPNPAGLAAGTVASIILALVLLVVLLVVCGPLAYKKLVKKFRQKKQRQWIGPTGMNQNMSFHRNHTATVRSHAENPTASHVDNEYSQPPRNSHLSAYPALEGALHRSSMQPDNSSDSDYDLHGAQRL
notes: as for B2

Key:
[1] = target: T1, ROR2 protein (tyrosine-protein kinase transmembrane receptor ROR2) (human, UniProt Q01974 34-943); assay: fluorescence confocal microscopy, Wnt5a-treated CLL cells
T1 construct: Endogenous ROR2 of CLL cells, normal B cells and MEC1 cells; also called NTRKR2
T1 sequence (Q01974 34-943 limits assumed): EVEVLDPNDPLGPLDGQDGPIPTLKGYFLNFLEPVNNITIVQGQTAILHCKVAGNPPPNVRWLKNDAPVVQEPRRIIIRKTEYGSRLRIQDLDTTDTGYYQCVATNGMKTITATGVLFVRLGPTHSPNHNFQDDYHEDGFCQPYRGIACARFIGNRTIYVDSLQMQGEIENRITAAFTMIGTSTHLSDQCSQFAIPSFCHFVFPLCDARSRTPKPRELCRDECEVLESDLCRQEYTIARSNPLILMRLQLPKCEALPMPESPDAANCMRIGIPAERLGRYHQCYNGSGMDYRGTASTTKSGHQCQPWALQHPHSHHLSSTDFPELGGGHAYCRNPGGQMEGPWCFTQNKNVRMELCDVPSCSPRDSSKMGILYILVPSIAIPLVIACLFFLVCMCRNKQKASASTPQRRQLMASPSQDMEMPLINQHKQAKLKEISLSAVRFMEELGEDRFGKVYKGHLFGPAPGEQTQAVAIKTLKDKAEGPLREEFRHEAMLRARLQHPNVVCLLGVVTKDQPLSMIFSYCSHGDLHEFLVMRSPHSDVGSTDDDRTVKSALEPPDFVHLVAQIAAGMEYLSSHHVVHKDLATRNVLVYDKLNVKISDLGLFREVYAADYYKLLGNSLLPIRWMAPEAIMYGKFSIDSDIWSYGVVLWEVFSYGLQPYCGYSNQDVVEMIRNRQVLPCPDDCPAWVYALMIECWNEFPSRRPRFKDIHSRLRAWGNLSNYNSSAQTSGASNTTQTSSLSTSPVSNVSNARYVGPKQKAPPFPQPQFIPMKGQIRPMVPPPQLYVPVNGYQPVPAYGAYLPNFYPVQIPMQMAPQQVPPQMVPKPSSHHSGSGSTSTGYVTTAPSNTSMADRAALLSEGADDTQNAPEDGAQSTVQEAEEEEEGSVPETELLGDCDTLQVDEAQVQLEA

[2] = target: T2, ROR1 protein (tyrosine-protein kinase transmembrane receptor ROR1) (human, UniProt Q01973 30-937); assay: fluorescence confocal microscopy, CLL cells
T2 construct: Endogenous ROR1 of CLL patients' cells, and full-length ROR1 expressed from a vector in the human CLL line MEC1 (MEC1-ROR1); also called NTRKR1; full-length ROR1
T2 sequence (Q01973 30-937 limits assumed): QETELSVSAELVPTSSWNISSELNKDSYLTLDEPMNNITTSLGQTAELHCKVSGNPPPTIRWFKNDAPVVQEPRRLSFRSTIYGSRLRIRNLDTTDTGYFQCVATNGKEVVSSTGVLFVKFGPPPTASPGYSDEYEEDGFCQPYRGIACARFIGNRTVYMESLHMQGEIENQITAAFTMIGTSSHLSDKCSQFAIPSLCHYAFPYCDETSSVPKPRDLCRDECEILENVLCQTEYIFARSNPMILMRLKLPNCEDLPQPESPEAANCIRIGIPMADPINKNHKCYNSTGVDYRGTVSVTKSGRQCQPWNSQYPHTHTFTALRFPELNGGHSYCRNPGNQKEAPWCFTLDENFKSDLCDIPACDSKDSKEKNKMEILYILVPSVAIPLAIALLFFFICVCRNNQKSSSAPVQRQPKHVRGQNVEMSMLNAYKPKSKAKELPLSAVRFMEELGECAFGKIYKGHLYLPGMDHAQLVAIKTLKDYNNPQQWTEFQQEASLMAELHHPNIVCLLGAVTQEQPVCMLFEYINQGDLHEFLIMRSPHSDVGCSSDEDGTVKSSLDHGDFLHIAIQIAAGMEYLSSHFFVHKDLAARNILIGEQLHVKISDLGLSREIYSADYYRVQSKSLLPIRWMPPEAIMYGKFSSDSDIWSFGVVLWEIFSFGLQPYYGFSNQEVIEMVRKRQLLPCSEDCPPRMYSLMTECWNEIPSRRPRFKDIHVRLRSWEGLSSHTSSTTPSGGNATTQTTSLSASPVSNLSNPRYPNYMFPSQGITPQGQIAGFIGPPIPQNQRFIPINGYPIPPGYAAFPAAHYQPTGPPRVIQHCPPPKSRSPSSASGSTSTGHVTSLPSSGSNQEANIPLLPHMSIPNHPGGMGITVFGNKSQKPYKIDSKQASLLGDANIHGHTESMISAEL
Experimental: (§1) FIG. 9. Negative control for co-localization analysis by confocal microscopy. CLL cells were stained with anti-CD5-Alexa-647 and anti-CD19-Alexa-488; anti-ROR1-Alexa-647 and anti-CD19-Alexa-488; or anti-CD5-Alexa-647 and anti-ROR2-Alexa-488 for evaluation by confocal microscopy (Scale bar: 2 μm). There is no co-localization between CD5 and CD19, ROR1 and CD19, or CD5 and ROR2.
(§2) However, it was difficult to detect co-localization of ROR1 with ROR2 in cultured CLL cells unless they were treated with exogenous Wnt5a (FIG. 3b).

[3] = target: T1, ROR2 protein (tyrosine-protein kinase …); assay: fluorescence confocal microscopy, CLL cells
Experimental: as §1, §2

CD19 = target: B2; assay: fluorescence confocal microscopy, CLL cells
Experimental: as §1, §2

B1
binding result [1]: binds

B2
binding result [2]: no binding

B3
binding result [3]: no binding | binding result (CD19): no binding
